These results are taken from publication PMC6172466.

For the assay, the target named is FlAsH-tagged K63-linked diubiquitin (UniProt P0CG48). Description: fluorescence polarisation; FlAsH-tagged K63-linked diUb (diluted to 80 nM, mixed 1:1) with serially diluted OTUD1; 50 mM Tris, 50 mM NaCl, 0.1% β-mercaptoethanol, pH 7.6; room temperature, 1 h. Background: Fluorescence polarisation rises when a labelled molecule tumbles more slowly, as on binding a larger partner.

B1: OTUD1 catalytic domain (residues 287-435) C320A (domain or fragment)
chain: DEKLALYLAEVEKQDKYLRQRNKYRFHIIPDGNALYRAVSKTVYGDQSLHRELREQTVHYIADHLDHFSPLIEGDVGEFIIAAAQDGAWAGYPELLAMGQMLNVNIHLTTGGRLESPTVSTMIHYLGPEDSLRPSIWLSWLSNGHYDAV
On to B1, for which the Kd (in general, the constant that tells how readily two partners part at equilibrium) came out at 40 µM.
